Measured values as given in patent US20250333501A1 (University of California, published 2025).
Changes are numbered by the printed parent chain.

B1: AB1-7 (antibody, V domains shown)
VH: QVQLVQSGAEVKKPGASVKMSCKASGYTFTTYTMHWVRQAPGQGLEWIGFINPSSGYTDYAQKFQGRVTLTADTSTSTVYMELSSLRSEDTAVYYCANGDYYVAYWGQGTLVTVSS
VL: DIQLTQSPSSLSASVGDRVTMTCTASSSVSSTYFHWYQQKPGKAPKLLIYSTSNLASGVPSRFSGSGSGTDYTLTISSMQPEDAATYYCHQYHRSPLTFGQGTKLEIK
notes: Humanized; also called Humanized AB 1-7
B2: AB1-3 (antibody, V domains shown)
VH: B1 VH with M20V, I48M, L70M
VL: B1 VL with L4M, M21I, M79L, A84F
notes: also called Humanized AB 1-3
B3: AB1-8 (antibody, V domains shown)
VH: B1 VH
VL: B1 VL with L48W
notes: Humanized; also called Humanized AB 1-8
B4: AB1-4 (antibody, V domains shown)
VH: B1 VH with M20V, I48M, L70M
VL: B1 VL
notes: also called Humanized AB 1-4
B5: AB1-5 (antibody, V domains shown)
VH: B1 VH with M20V, I48M, L70M
VL: B1 VL with L48W
notes: also called Humanized AB 1-5
B6: AB1-11 (antibody, V domains shown)
VH: B1 VH with T74K
VL: B1 VL with L48W
notes: Humanized; also called Humanized AB 1-11
B7: AB1-6 (antibody, V domains shown)
VH: B1 VH
VL: B1 VL with L4M, M21I, M79L, A84F
notes: also called Humanized AB 1-6
B8: AB4-6 (antibody, V domains shown)
VH: QVQLVQSGAEVKKPGASVKMSCKASGYTFTSYTMHWIRQAPGQGLEWIGYINPSSTYTHYAQKFQGRATLTADKSTSTAYMELSSLRSEDTAVYYCSRGELGGFAYWGQGTLVTVSS
VL: DVVMTQSPLSLPVTLGQPASISCRSSQSLVHSDGNTYLNWYQQRPGQSPRLLIYKVSNRFSGVPDRFSGSGSGTDFTLKISRVEAEDVGVYYCSQSTHVPYTFGQGTKLEIK
notes: also called Humanized AB 4-6
B9: AB4-9 (antibody, V domains shown)
VH: B8 VH with A61I, Q62K, Q65K, G66D, K74T
VL: B8 VL
notes: Humanized; also called Humanized AB 4-9
B10: AB4-11 (antibody, V domains shown)
VH: B8 VH with A61I, Q62K, Q65K, G66D
VL: B8 VL
notes: Humanized; also called Humanized AB 4-11
B11: AB4-10 (antibody, V domains shown)
VH: B8 VH with L45Q, A61I, Q62K, Q65K, G66D, K74T
VL: B8 VL
notes: Humanized; also called Humanized AB 4-10
B12: AB4-7 (antibody, V domains shown)
VH: B8 VH with L45Q
VL: B8 VL
notes: also called Humanized AB 4-7
B13: AB4-12 (antibody, V domains shown)
VH: B8 VH with L45Q, A61I, Q62K, Q65K, G66D
VL: B8 VL
notes: Humanized; also called Humanized AB 4-12
B14: AB4-8 (antibody, V domains shown)
VH: QVQLVQSGAEVKKPGASVKVSCKASGYTFTSYTMHWVRQAPGQGLEWMGYINPSSTYTHYIKKFKDRVTMTADTSTSTVYMELSSLRSEDTAVYYCSRGELGGFAYWGQGTLVTVSS
VL: B8 VL
notes: Humanized; also called Humanized AB 4-8
B15: AB3-7 (antibody, V domains shown)
VH: EVQLLESGGGLVQPGGSMRLSCAASGFTFSNYWMNWVRQAPGKGLEWVAQIRLKSDNYATHYADSVKGRFTISRDDSKNTVYLQMNSLRAEDTGVYYCNDGPPSGSWGQGTLLTVSS
VL: DIQMTQSPSSLSASVGDRVTITCRISENIYSYLAWYQQKPGKAPKLLVYNAKILVEGVPSRFSGSGSGTDFTLTISSLQPEDFGTYYCQHHYTVPWTFGQGTKLEIK
notes: also called Humanized AB 3-7
B16: AB1-Chim (antibody, V domains shown)
VH: QVQLQQSAAELARPGASVKMSCKASGYTFTTYTMHWVKQRPGQGLEWIGFINPSSGYTDYNQKFKDRTTLTADKSSSTVYMQLSSLTSEDSAVYYCANGDYYVAYWGQGTLVTVSA
VL: QIVLTQSPAIMSASLGERVTMTCTASSSVSSTYFHWYQQKPGSSPKLWIYSTSNLASGVPRRFSGSASGTSYSLTISSMEAEDAATYYCHQYHRSPLTFGAGTKLELK
notes: 'chim' is the pre-humanized form (parental variable regions); also called pre-humanized (chimeric) form of AB1
B17: AB3-chim (antibody, V domains shown)
VH: EVKLEESGGGLVQPGGSMKLSCVASGFTFSNYWMNWVRQSPEKGLEWVAQIRLKSDNYATHYAESVKGRFTISRDDSKRSVYLQMNNLRAEDTGTYYCNDGPPSGCWGQGTTLIVSS
VL: DIQMTQSPASLSASVGETVTITCRISENIYSYLAWYQQKQGKSPQLLVYNAKILVEGVPSRFSGSGSGTQFSLKINSLQPEDFGNYYCQHHYTVPWTFGGGTKLEIK
notes: 'chim' is the pre-humanized form (parental variable regions); also called pre-humanized (chimeric) form of AB3

What follows are binders tested against T1, CLDN6 endogenously expressed by human cancer cell lines (ARK2, OVCA429) (human, UniProt P56747 1-220) (assay: FACS, 0.3 µg Ab, ARK2 cells).
T1 construct: Untagged endogenous protein; also called Endogenous CLDN6+
T1 sequence: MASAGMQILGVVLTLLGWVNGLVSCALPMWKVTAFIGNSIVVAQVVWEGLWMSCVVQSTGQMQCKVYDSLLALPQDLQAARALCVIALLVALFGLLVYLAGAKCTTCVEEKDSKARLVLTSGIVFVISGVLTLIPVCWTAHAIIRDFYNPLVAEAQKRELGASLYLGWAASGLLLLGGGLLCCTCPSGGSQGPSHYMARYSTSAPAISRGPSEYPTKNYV
Experimental: (§1) FACS assays were also carried out to determine relative antigen binding strengths of the humanized antibodies (at either 1.5 μg or 0.3 μg) for binding to CLDN6 as expressed by the indicated cancer cell lines. 2nd Ab only was used as a negative control.

Point of comparison: B11, FACS fluorescence 7210. Against it:
- B1 — lower, 4440
- B2 — lower, 2830
- B3 — lower, 5810
- B4 — lower, 3640
- B5 — higher, 7490
- B6 — higher, 53900
- B7 — lower, 2820
- B8 — lower, 3300
- B9 — lower, 3060
- B10 — lower, 6390
- B12 — lower, 2770
- B13 — higher, 9690
- B14 — lower, 3120
- B15 — higher, 36000
- B16 — higher, 58800
- B17 — higher, 17100

The binders below were run against T1, CLDN6 endogenously expressed by human … (assay: FACS, 1.5 µg Ab, ARK2 cells).
Experimental: as §1

Point of comparison: B11, FACS fluorescence 20200. Against it:
- B1 — lower, 11200
- B2 — lower, 10800
- B3 — lower, 17600
- B4 — lower, 10000
- B5 — higher, 22400
- B6 — higher, 97700
- B7 — lower, 7740
- B8 — lower, 9840
- B9 — lower, 7790
- B10 — lower, 9170
- B12 — lower, 7560
- B13 — higher, 24200
- B14 — lower, 7310
- B15 — higher, 90400
- B16 — higher, 51900
- B17 — higher, 29100

These binders were tested against T2, human CLDN6 fused to GFP, expressed on engineered HEK293T cells (HEK293T-CLDN6-mGFP) (human, UniProt P56747 1-220) (assay: FACS, 1.5 µg Ab, 293T clone with human CLDN6).
T2 construct: It calls residues 1-21 a signal peptide; also called Claudin-6; HEK293T-CLDN6-mGFP Artificial CLDN6+; not shown: mGFP tag
T2 sequence: T1 sequence
Summary of the method: (§2)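 Using a direct-binding flow cytometry method essentially as in the source, humanized antibodies were tested on engineered 293T clones expressing human CLDN6. Labelled antibody (Alexa Fluor 647 NHS ester) was added at 0.3 µg or 1.5 µg to EDTA-detached cells, which were kept on ice in the dark for 30 min, washed and read in channel FL4H of a BD Accuri C6. Fluorescence indicates relative antigen binding strength.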

Point of comparison: B1, FACS fluorescence 207000. Against it:
- B2 — lower, 142000
- B3 — higher, 210000
- B4 — lower, 197000
- B5 — higher, 213000
- B6 — lower, 113000
- B7 — higher, 227000
- B8 — lower, 29200
- B9 — lower, 56900
- B10 — lower, 61200
- B11 — lower, 77200
- B12 — lower, 33300
- B13 — lower, 86200
- B14 — lower, 77600
- B15 — lower, 169000
- B16 — higher, 364000
- B17 — higher, 459000

What follows are binders tested against T1, CLDN6 endogenously expressed by human … (assay: FACS, 1.5 µg Ab, OVCA429 cells).

Point of comparison: B17, FACS fluorescence 138000. Against it:
- B1 — lower, 44700
- B2 — lower, 27500
- B3 — lower, 66000
- B4 — lower, 34600
- B5 — lower, 54300
- B7 — lower, 29900
- B16 — higher, 177000

These binders were tested against T2, human CLDN6 fused to GFP, expressed on … (assay: FACS, 0.3 µg Ab, 293T clone with human CLDN6).
Summary of the method: as §2

Point of comparison: B3, FACS fluorescence 98800. Against it:
- B1 — lower, 79200
- B2 — higher, 142000
- B4 — higher, 102000
- B5 — higher, 138000
- B6 — lower, 64900
- B7 — higher, 120000
- B8 — lower, 10800
- B9 — lower, 37200
- B10 — lower, 37800
- B11 — lower, 50800
- B12 — lower, 19200
- B13 — lower, 71100
- B14 — lower, 49300
- B15 — higher, 106000
- B16 — higher, 312000
- B17 — higher, 267000
